From patent US9862971B2 (BUNDESREPUBLIK DEUTSCHLAND, LETZTVERTRETEN DURCH DEN …, dated 2018)

Target: CD46 (human, UniProt P15529)
Assay: cell-based or functional assay

B1: MeV HEdm wildtype (wt) protein (other)
chain: MSPQRDRINAFYKDNPHPKGSRIVINREHLMIDRPYVLLAVLFVMFLSLIGLLAIAGIRLHRAAIYTAEIHKSLSTNLDVTNSIEHQVKDVLTPLFKIIGDEVGLRTPQRFTDLVKFISDKIKFLNPDREYDFRDLTWCINPPERIKLDYDQYCADVAAEELMNALVNSTLLETRTTNQFLAVSKGNCSGPTTIRGQFSNMSLSLLDLYLGRGYNVSSIVTMTSQGMYGGTYLVEKPNLSSKRSELSQLSMYRVFEVGVIRNPGLGAPVFHMTNYLEQPVSNDLSNCMVALGELKLAALCHGEDSITIPYQGSGKGVSFQLVKLGVWKSPTDMQSWVPLSTDDPVIDRLYLSSHRGVIADNQAKWAVPTTRTDDKLRMETCFQQACKGKIQALCENPEWAPLKDNRIPSYGVLSVDLSLTVELKIKIASGFGPLITHGSGMDLYKSNHNNVYWLTIPPMKNLALGVINTLEWIPRFKVSPYLFTVPIKEAGGDCHAPTYLPAEVDGDVKLSSNLVILPGQDLQYVLATYDTSRVEHAVVYYVYSPSRSFSYFYPFRLPIKGVPIELQVECFTWDQKLWCRHFCVLADSESGGHITHSGMVGMGVSCTVTREDGTNRR
  titer [t.u./ml] of HIV-1 vector particles on 293T cells, concentrated supernatant: 0 t.u./ml
  titer [t.u./ml] of HIV-1 vector particles on U-87MG cells, concentrated supernatant: 0 t.u./ml
